Data reported in the RNAGym collection of RNA variant scans (doi:10.1093/molbev/msab373).

B1: Azoarcus group I ribozyme (parent)
chain: GUGCCUUGCGCCGGGAAACCACGCAAGGGAUGGUGUCAAAUUCGGCGAAACCUAAGCGCCCGCCCGGGCGUAUGGCAACGCCGAGCCAAGCUUCGGCGCCUGCGCCGAUGAAGGUGUAGAGACUAGACGGCACCCACCUAAGGCAAACGCUAUGGUGAAGGCAUAGUCCAGGGAGUGGCGAAAGUCACACAAACCGG

Variants of: B1
Assay: reverse-splicing fitness (ratio to wild type); higher = more active; in vitro selection; Mg2+ level not given
Summary of the method: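 An in vitro group I ribozyme library with randomized positions was T7-transcribed and gel-purified. In triplicate, 10 pmol RNA in EPPS pH 7.5 was reacted with 50 pmoles of a 30-nt RNA substrate for 1 h at 37 °C across several added MgCl2 levels (1–48 mM), then stopped with EDTA. Products were reverse transcribed from a substrate-complementary primer, PCR-amplified and sequenced (HiSeq 4000). Fitness is a variant's read proportion after selection over that before, normalised to wild type.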

Q: With A120C A145C C150G C169U U176A as the variant, how does the reverse-splicing fitness read?
A: 0.0183

Q: Which reverse-splicing fitness does the source give for A120C A145C C150G C169U U176G here?
A: 0.0043

Q: For A111U A145U C150U U176C, which reverse-splicing fitness is on record?
A: 0.641

Q: Which reverse-splicing fitness does the source give for A111U A145U C150U U176A here?
A: 0.632

Q: For A111U A145U C150U U176G, which reverse-splicing fitness is on record?
A: 0.266

Q: For A111U A145G C169A U176C, which reverse-splicing fitness is on record?
A: 0.0305

Q: For A111U A145G C169A U176G, which reverse-splicing fitness is on record?
A: 0.00593

Q: With A111U A145G C169A U176A as the variant, how does the reverse-splicing fitness read?
A: 0.0211

Q: With A111U A145U C169A U176G as the variant, how does the reverse-splicing fitness read?
A: 0.00631

Q: Which reverse-splicing fitness does the source give for A111U A145U C169A U176A here?
A: 0.0113

Q: For A111U A145U C169A U176C, which reverse-splicing fitness is on record?
A: 0.0115

Q: Which reverse-splicing fitness does the source give for A111U A145U C150G C169G U176C here?
A: 0.00535

Q: With A111U A145U C150G C169G U176G as the variant, how does the reverse-splicing fitness read?
A: 0.00534

Q: For A111U A145U C150G C169G U176A, which reverse-splicing fitness is on record?
A: 0.00711

Q: Which reverse-splicing fitness does the source give for A120C A145U C150A U176C here?
A: 0.179

Q: With A120C A145U C150A U176G as the variant, how does the reverse-splicing fitness read?
A: 0.0668

Q: For A120C A145U C150A U176A, which reverse-splicing fitness is on record?
A: 0.191

Q: For A111U C150A C169G U176G, which reverse-splicing fitness is on record?
A: 0.00571

Q: For A111U C150A C169G U176A, which reverse-splicing fitness is on record?
A: 0.0165

Q: For A111U C150A C169G U176C, which reverse-splicing fitness is on record?
A: 0.0236

Q: Which reverse-splicing fitness does the source give for A120C A145C C150G U176G here?
A: 0.0256

Q: For A120C A145C C150G U176A, which reverse-splicing fitness is on record?
A: 0.155

Q: With A120C A145C C150G U176C as the variant, how does the reverse-splicing fitness read?
A: 0.174

Q: Which reverse-splicing fitness does the source give for A120C A145C C150G C169G here?
A: 0.00786

Q: For A120C A145C C150G C169A, which reverse-splicing fitness is on record?
A: 0.0111

Q: With A120C A145C C150G C169U as the variant, how does the reverse-splicing fitness read?
A: 0.117

Q: With A111U A145U U176C as the variant, how does the reverse-splicing fitness read?
A: 0.767

Q: Which reverse-splicing fitness does the source give for A111U A145U U176A here?
A: 0.747

Q: With A111U A145U U176G as the variant, how does the reverse-splicing fitness read?
A: 0.364

Q: With A111U A145U as the variant, how does the reverse-splicing fitness read?
A: 0.924

Q: Which reverse-splicing fitness does the source give for A120C A145C C150A C169G U176G here?
A: 0.00492

Q: Which reverse-splicing fitness does the source give for A120C A145C C150A C169G U176C here?
A: 0.00769

Q: For A120C A145C C150A C169G U176A, which reverse-splicing fitness is on record?
A: 0.0166

Q: For A111U C150G C169G U176A, which reverse-splicing fitness is on record?
A: 0.00681

Q: For A111U C150G C169G U176C, which reverse-splicing fitness is on record?
A: 0.00465

Q: For A111U C150G C169G U176G, which reverse-splicing fitness is on record?
A: 0.00515

Q: For A120C A145U C150A C169U U176A, which reverse-splicing fitness is on record?
A: 0.0459

Q: For A120C A145U C150A C169U U176G, which reverse-splicing fitness is on record?
A: 0.0079

Q: For A120C A145U C150A C169U U176C, which reverse-splicing fitness is on record?
A: 0.0562

Q: Which reverse-splicing fitness does the source give for A111U A145G C150G C169G U176A here?
A: 0.00998

Q: Which reverse-splicing fitness does the source give for A111U A145G C150G C169G U176G here?
A: 0.00597

Q: With A111U A145G C150G C169G U176C as the variant, how does the reverse-splicing fitness read?
A: 0.0116

Q: For A111U A145U C150G C169G, which reverse-splicing fitness is on record?
A: 0.011

Q: For A111U A145U C150G C169U, which reverse-splicing fitness is on record?
A: 0.0168

Q: For A111U A145U C150G C169A, which reverse-splicing fitness is on record?
A: 0.0102

Q: With A111U A145G C150U U176A as the variant, how does the reverse-splicing fitness read?
A: 0.591

Q: For A111U A145G C150U U176G, which reverse-splicing fitness is on record?
A: 0.22

Q: For A111U A145G C150U U176C, which reverse-splicing fitness is on record?
A: 0.692

Q: With A120C A145G C150U C169A U176C as the variant, how does the reverse-splicing fitness read?
A: 0.0196

Q: With A120C A145G C150U C169A U176A as the variant, how does the reverse-splicing fitness read?
A: 0.0167

Q: With A120C A145G C150U C169A U176G as the variant, how does the reverse-splicing fitness read?
A: 0.00444

Q: For A111U A145G C150U C169U U176G, which reverse-splicing fitness is on record?
A: 0.00652

Q: Which reverse-splicing fitness does the source give for A111U A145G C150U C169U U176A here?
A: 0.025

Q: For A111U A145G C150U C169U U176C, which reverse-splicing fitness is on record?
A: 0.0314

Q: For A120C A145G C169A U176C, which reverse-splicing fitness is on record?
A: 0.024

Q: For A120C A145G C169A U176A, which reverse-splicing fitness is on record?
A: 0.0215

Q: For A120C A145G C169A U176G, which reverse-splicing fitness is on record?
A: 0.00471

Q: With A111U A145G C150G C169A U176A as the variant, how does the reverse-splicing fitness read?
A: 0.0118

Q: For A111U A145G C150G C169A U176C, which reverse-splicing fitness is on record?
A: 0.0121

Q: With A111U A145G C150G C169A U176G as the variant, how does the reverse-splicing fitness read?
A: 0.00707

Q: Which reverse-splicing fitness does the source give for A120C A145G C150A C169U here?
A: 0.134

Q: With A120C A145G C150A C169A as the variant, how does the reverse-splicing fitness read?
A: 0.0153

Q: Which reverse-splicing fitness does the source give for A120C A145G C150A C169G here?
A: 0.0107

Q: For A111U C150G C169A, which reverse-splicing fitness is on record?
A: 0.00956

Q: For A111U C150G C169U, which reverse-splicing fitness is on record?
A: 0.0141

Q: For A111U C150G C169G, which reverse-splicing fitness is on record?
A: 0.00998

Q: For A111U A145U C150U C169A, which reverse-splicing fitness is on record?
A: 0.0209

Q: Which reverse-splicing fitness does the source give for A111U A145U C150U C169G here?
A: 0.0415

Q: Which reverse-splicing fitness does the source give for A111U A145U C150U C169U here?
A: 0.0705

Q: For A120C A145C C150A C169U U176C, which reverse-splicing fitness is on record?
A: 0.032

Q: Which reverse-splicing fitness does the source give for A120C A145C C150A C169U U176G here?
A: 0.00561

Q: With A120C A145C C150A C169U U176A as the variant, how does the reverse-splicing fitness read?
A: 0.0342

Q: With A120C A145G C169U U176G as the variant, how does the reverse-splicing fitness read?
A: 0.015

Q: With A120C A145G C169U U176A as the variant, how does the reverse-splicing fitness read?
A: 0.153

Q: With A120C A145G C169U U176C as the variant, how does the reverse-splicing fitness read?
A: 0.185

Q: For A111U C150G U176A, which reverse-splicing fitness is on record?
A: 0.0805

Q: With A111U C150G U176C as the variant, how does the reverse-splicing fitness read?
A: 0.124

Q: Which reverse-splicing fitness does the source give for A111U C150G U176G here?
A: 0.0165

Q: With A120C A145G C150G C169G U176A as the variant, how does the reverse-splicing fitness read?
A: 0.00996

Q: For A120C A145G C150G C169G U176G, which reverse-splicing fitness is on record?
A: 0.00533

Q: Which reverse-splicing fitness does the source give for A120C A145G C150G C169G U176C here?
A: 0.0135

Q: For A111U C150U C169G U176A, which reverse-splicing fitness is on record?
A: 0.0177

Q: With A111U C150U C169G U176G as the variant, how does the reverse-splicing fitness read?
A: 0.00719

Q: With A111U C150U C169G U176C as the variant, how does the reverse-splicing fitness read?
A: 0.0215
